Measurements taken from article PMC10530652 (BME Frontiers, 2021).

What was measured:
[1] = test system: MMP activity in ex vivo ventilated ovine lung; test: Ex vivo ovine lung model instilled with OPA supernatant, FCFM imaging; settings: 5 μM FIB One in 1 mL, OPA supernatant-instilled segments, n=3
Experimental: Ovine pulmonary adenocarcinoma (OPA) tissue was homogenised using a drill homogeniser, followed by lysis in cell lysis buffer. The supernatant was collected following centrifugation at 12,000 rpm for 20 min. The samples were adjusted to 1 mg mL^-1 total protein (determined by a Pierce BCA Total Protein Assay Kit (Thermo Fisher Scientific)). Zymography (as described above) was performed to confirm MMP activity across multiple OPA samples. Recombinant MMP-9 (2 nM) and recombinant pro-MMP-9 (0.5 nM) were included in the assay as positive controls. […] Following >30 min, the segments were bronchoscopically identified and microdosed with 5 μM FIB One in 1 mL. FCFM imaging was undertaken pre- and postinstillation (Cellvizio®, Mauna Kea Technologies). This was performed by passing a FCFM fibre into the disparate bronchopulmonary segments (up to 5 passes per bronchopulmonary segment to capture a regional representation of fluorescence), recording images at 12 frames per second and imaging for up to 5 minutes. Videos were analysed as described above. Each experimental set was normalised to the control segment (segment with 1 mL 0.9% NaCl instilled) which represents intrinsic autofluorescence.

patients = test: Clinical observations in patients after procedure; assay type: in vivo, human
Excerpt: Table S2: Clinical observations.

[2] = test system: patients with fibroproliferative lung disease; test: Adverse events in the FIB One clinical study; assay type: in vivo, human
Experimental: In initial exploratory testing, 8 patients with either endobronchial tumour or parenchymal fibrosis underwent FIB One microdosing (<100 μg, <5 mL). FIB One was administered using a delivery catheter (ERBE APC catheter or TLBC) passed out of the working channel of the wedged bronchoscope into the bronchus allowing distal dissipation of the compound for alveolar imaging or applied directly onto visible tumour. FCFM imaging was performed pre- and postinstillation of FIB One, with the fibre tip positioned at the bronchial mucosa or passed into the alveolar region following transbronchial puncture, as appropriate for the clinical indication. Images were recorded for at least 30 s at 12 frames/second.
In subsequent testing the Miniaturized Alveoflex™-TLBC combination replaced the Alveoflex™ fibre. The entire apparatus was passed transbronchially to allow direct alveolar imaging before localised delivery of agents. Once transbronchial pass was accomplished, baseline lung imaging was recorded for at least 30 sec. A 500 μL microdose of either AZD1236 (14 μg/mL) or sterile PBS (control) was administered under direct observation, and further imaging was obtained for >60 sec. 500 μL of FIB One (20 μg/mL) (delivered only after at least 60s to allow MMP inhibition) was then dosed to the same area with a further 90-120 sec of imaging captured. If considerable movement due to breathing or coughing was encountered, imaging was halted and a new segment identified. Up to 6 segments of interest were investigated per patient determined by patient tolerance.
Table S5: Patient demographics and AEs part B. Three patients reported adverse events within the 24h period post procedure all of which are commonly associated with flexible bronchoscopy.

[3] = test system: MMP activity in the alveolar space; test: In-human alveolar FCFM imaging after endobronchial delivery of FIB One; assay type: in vivo; settings: FIB One microdose <100 μg, bolus, patients with parenchymal fibrosis, n=4
Experimental: All participants were scheduled for routine, clinical diagnostic flexible bronchoscopy in our institution with a known or suspected diagnosis of fibrosis or lung cancer. All eight patients had computerized tomography performed prior to bronchoscopy and regions of active disease identified for targeted investigation.
Bronchoscopy was undertaken in an outpatient suite using local anaesthetic and conscious sedation or in theatre under general anaesthetic. FCFM was performed using a clinically approved confocal laser scanning endomicroscopy device (Cellvizio®, Mauna Kea Technologies) with a compatible imaging fibre (Alveoflex™ or Miniaturized Alveoflex™, Mauna Kea Technologies).
In initial exploratory testing, 8 patients with either endobronchial tumour or parenchymal fibrosis underwent FIB One microdosing (<100 μg, <5 mL). […] Images were recorded for at least 30 s at 12 frames/second.
All video sequences were assessed by two clinicians with clinical experience of pulmonary endomicroscopy. […] Videos were assessed to ensure stability throughout the imaging procedure. […] All video files were analysed using the Cellvizio® Viewer image processing software from Mauna Kea Technologies, Paris. […] The median RFU was calculated for each category and used as a comparative value between groups.

Crl:WI(Han) rats = test: Single intratracheal administration toxicity study of AZD1236; assay type: in vivo, rat; settings: 35 µg/animal (70 µg/mL)
Experimental: Assessment of toxicity of AZD1236 was based on clinical signs, body weight, food consumption, clinical and anatomic pathology evaluations. Complete necropsies were performed on all animals with a recording of macroscopic abnormalities for all tissues. Organ weights and microscopic examinations were conducted as indicated.

Substance: (Pro-Phe-Gly-Nle-Lys-βAla)3 [FIB One]
- FIB One fluorescence in segments with high MMP activity [1]: diffuse pattern of increased fluorescence
- Respiratory Rate (patients; Hour 1, mean (s.d.), baseline 16 (1)): 16 (2) bpm
- Temperature (patients; Hour 1, mean (s.d.), baseline 36.6 (0.5)): 36.4 (0.4) C
- Heart Rate (patients; Hour 1, mean (s.d.), baseline 76 (13)): 69 (13) bpm
- Oxygen Saturations (patients; Hour 1, mean (s.d.), baseline 96 (1)): 97 (2) %
- Systolic BP (patients; Hour 1, mean (s.d.), baseline 142 (22)): 124 (20) mmHg
- Heart Rate (patients; Hour 2, mean (s.d.)): 67 (18) bpm
- Oxygen Saturations (patients; Hour 2, mean (s.d.)): 97 (2) %
- Respiratory Rate (patients; Hour 2, mean (s.d.)): 17 (1) bpm
- Systolic BP (patients; Hour 2, mean (s.d.)): 124 (18) mmHg
- Temperature (patients; Hour 2, mean (s.d.)): 36.4 (0.6) C
- Heart Rate (patients; Hour 3, mean (s.d.)): 71 (12) bpm
- Oxygen Saturations (patients; Hour 3, mean (s.d.)): 96 (2) %
- Respiratory Rate (patients; Hour 3, mean (s.d.)): 16 (1) bpm
- Systolic BP (patients; Hour 3, mean (s.d.)): 122 (32) mmHg
- Temperature (patients; Hour 3, mean (s.d.)): 36.5 (0.4) C
- Heart Rate (patients; Hour 4, mean (s.d.)): 77 (14) bpm
- Oxygen Saturations (patients; Hour 4, mean (s.d.)): 96 (2) %
- Respiratory Rate (patients; Hour 4, mean (s.d.)): 16 (1) bpm
- Systolic BP (patients; Hour 4, mean (s.d.)): 125 (17) mmHg
- Temperature (patients; Hour 4, mean (s.d.)): 36.8 (0.4) C
- clinically significant variation of clinical observations (patients; between baseline and point of discharge from study (hour 4)): no clinically significant variation
- Adverse Events ([2]; Part A, one line per patient DO01-DO08, FIB One microdose <100 μg): Nil and Haemoptysis and Cough and Fever
- Adverse Events ([2]; Part B, one line per patient DO09-DO17, FIB One with or without AZD1236 via TLBC, within 24h post procedure): Nil and Cough and Cough Fever and Haemoptysis
- significant adverse events ([2]; eight patients, endobronchial FIB One bolus): no significant adverse events
- alveolar FCFM fluorescent signal following endobronchial delivery [3]: increased fluorescent signal

Substance: AZD1236
- deaths, clinical signs, body weight, food consumption, clinical or anatomic pathology (Crl:WI(Han) rats): no deaths, no adverse clinical signs and no effects of treatment
- tolerability, acute or delayed toxicity (Crl:WI(Han) rats): well tolerated with no evidence of acute or delayed toxicity
